Laboratory results from patent publication US10669549B2, “Gold optimized CAR T-cells” (Chimera Bioengineering, Inc., priority 2016, dated 2020).
Changes are numbered by the printed parent chain.

B1: RDE3: 3′-UTR of IL-2 modified to remove the mir186 sites (CTT replaced with GAA, SEQ ID NO: 29) (nucleic acid, listed as Homo sapiens)
DNA: TAATTAAGTGCTTCCCACTTAAAACATATCAGGCCTTCTATTTATTTAAATATTTAAATTTTATATTTATTGTTGAATGTATGGTTTGCTACCTATTGTAACTATTATTCTTAATCTTAAAACTATAAATATGGATCTTTTATGATTGAATTTGTAAGCCCTAGGGGCTCTAAAATGGTTTCACTTATTTATCCCAAAATATTTATTATTATGTTGAATGTTAAATATAGTATCTATGTAGATTGGTTAGTAAAACTATTTAATAAATTTGATAAATATAAA
B2: RDE2: RNA destabilizing element: endogenous 3′-UTR of IL-2 (SEQ ID NO: 28), controlling luciferase in anti-CD19 CAR CD4+ T-cells (nucleic acid, listed as Homo sapiens)
DNA: B1 DNA with G148C, A149T, A150T
B3: RDE1: RNA destabilizing element: endogenous 3′-UTR of IFNg (SEQ ID NO: 30), controlling luciferase or IL-12 in anti-CD19 CAR CD4+ T-cells (nucleic acid, listed as Homo sapiens)
DNA: TGGTTGTCCTGCCTGCAATATTTGAATTTTAAATCTAAATCTATTTATTAATATTTAACATTATTTATATGGGGAATATATTTTTAGACTCATCAATCAAATAAGTATTTATAATAGCAACTTTTGTGTAATGAAAATGAATATCTATTAATATATGTATTATTTATAATTCCTATATCCTGTGACTGTCTCACTTAATCCTTTGTTTTCTGACTAATTAGGCAAGGCTATGTGATTACAAGGCTTTATCTCAGGGGCCAACTAGGCAGCCAACCTAAGCAAGATCCCATGGGTTGTGTGTTTATTTCACTTGATGATACAATGAACACTTATAAGTGAAGTGATACTATCCAGTTACTGCCGGTTTGAAAATATGCCTGCAATCTGAGCCAGTGCTTTAATGGCATGTCAGACAGAACTTGAATGTGTCAGGTGACCCTGATGAAAACATAGCATCTCAGGAGATTTCATGCCTGGTGCTTCCAAATATTGTTGACAACTGTGACTGTACCCAAATGGAAAGTAACTCATTTGTTAAAATTATCAATATCTAATATATATGAATAAAGTGTAAGTTCACAACTA

Columns and labels:
Type in all cases: cell-based
[1] = system: CD4+ T-cells; assay: Luciferase bioluminescence of transduced T-cells, resting versus stimulated; settings: for bioluminescence as compared to T-cells at resting: Raji target cells (activate CAR), FIG. 17; for amount of bioluminescence, comparison among RDE constructs: with either promoter (MinP or NFAT)
From the text: The anti-CD19 CAR cassette and the insert with the luciferase-RDE1 are transcribed in opposite directions, and the control regions for each are located in between the two insert/cassettes. The control region for the Luciferase-RDE1 insert and Luciferase-3′-UTR were either a MinP promoter or an NFAT promoter having the sequences of:
The control region of the anti-CD19 CAR cassette was the MND promoter. CD4+ T-cells were transduced with the bicistronic construct.
The transduced T cells were allowed to return to resting state, and then were tested after stimulation as follows. For the ‘no stimulation’ set, transduced T-cells were incubated for 24 h alone in medium. For the ‘Raji co-culture’ set and the “CD3/CD28 Beads” set, CD19+ Raji B cells or anti-CD3/anti-CD28 beads were incubated with the transduced T cells for 24 h. At 24 h, the T cells were stained for CD25 and CD69, which are activation markers, and subject to flow cytometry to measure these markers and luciferase expression in the T cells.
Combinations of these inserts/cassettes shown in FIG. 17 were placed in the similar lenti virus constructs. The anti-CD19 CAR cassette and the insert with the luciferase-RDE are transcribed in opposite directions, and the control regions for each are located in between the two insert/cassettes. The control region for the Luciferase-RDE insert and Luciferase-3′-UTR were either a MinP promoter or an NFAT promoter. The control region of the anti-CD19 CAR cassette was the MND promoter, and CD4+ T-cells were transduced with the bicistronic construct.
The transduced T cells were allowed to return to resting state, and then were tested after stimulation as follows. For the ‘no stimulation’ set, transduced T-cells were incubated for 24 h alone in medium. For the ‘Raji co-culture’ set CD19+ Raji B cells were incubated with the transduced T cells for 24 h. At 24 h, the T cells were stained for CD25 and CD69, which are activation markers, and subject to flow cytometry to measure these markers and luciferase expression in the T cells.

[2] = Expression from constructs with 3′-UTR RDEs after removal of microRNA binding sites; settings: MIR186 micro-RNA sites removed from the 3′-UTR of IL-2
From the text: The AU-rich element from the 3′-UTR of IL-2 has mir-181 and mir 186 microRNA binding sites. Different combinations of the microRNA sites were removed from the 3′-UTR of IL-2. When the MIR186 micro-RNA sites were removed from the 3′-UTR of IL-2 the dynamic range of expression from constructs with this UTR increased 50 fold. The modified IL-2, 3′-UTR replaces CTT in the sequence with GAA and is shown below (the new GAA is underlined in the sequence):
Different combinations of the micro-RNA sites were removed from the 3′UTR of IFNg and tested for increased expression. When the mir125 micro-RNA sites were removed from the 3′-UTR of IFN-γ the expression rate from constructs with this UTR is increased.

[3] = system: CD4+ T-cells; assay: IL-12 expression of transduced T cells by ELISA, resting versus Raji co-culture
From the text: The anti-CD19 CAR cassette and the insert with the IL-12-RDE1 are transcribed in opposite directions, and the control regions for each are located in between the two insert/cassettes. The control region for the IL-12-RDE1 insert and IL-12 3′-UTR were either a minP promoter or an NFAT promoter. The control region of the anti-CD19 CAR cassette was the MND promoter. CD4+ T-cells were transduced with the bicistronic construct.
The transduced T cells were allowed to return to resting state, and then were tested after stimulation as follows. For the ‘no stimulation’ set, transduced T-cells were incubated for 24 h alone in medium. For the ‘Raji co-culture’ set, CD19+ Raji B cells were incubated with the transduced T cells for 24 h. At 24 h, the T cells were stained for CD25 and CD69, which are activation markers, and subject to flow cytometry to measure these markers. IL-12 expression in the T cells was measured by ELISA.

Row | Molecule | increase in bioluminescence with CAR stimulation ([1]; MinP promoter) [fold] | increase in bioluminescence with CAR stimulation ([1]; NFAT promoter) [fold] | bioluminescence as compared to T-cells at resting [1] | amount of bioluminescence, comparison among RDE constructs [1] | increase of dynamic range of expression from constructs with this UTR [2] [fold] | on-off response from CAR stimulation versus TCR stimulation ([1]; NFAT promoter, luciferase) | amount of bioluminescence compared with luciferase not controlled by an RDE (3′-UTR) ([1]; all conditions, same promoter) | on-off response with NFAT promoter compared with MinP promoter and the corresponding RDE ([1]; luciferase, Raji co-culture) | change in IL-12 expression from resting to CAR stimulation ([3]; MinP promoter) [fold] | change in IL-12 expression from resting to CAR stimulation ([3]; NFAT promoter) [fold]
1 | B1 | 1.4 | 1.3 | increase in bioluminescence | highest amount of bioluminescence | 50 | – | – | – | – | –
2 | B2 | 1.8 | 3.1 | increase in bioluminescence | between RDE3 and RDE1 | – | – | – | – | – | –
3 | B3 | 4.1 | 8.5 | increase in bioluminescence | lowest amount of bioluminescence | – | larger on-off response | lower amounts of bioluminescence | larger on-off response | 6.3 | 168
